# Measured values reported in patent US20190359986A1 (ROCHE INNOVATION CENTER COPENHAGEN A S, published 2019).
# Residue numbers refer to the chain shown, from its start.
# B1: human TNFR2 Δ7 without His-tag, from clone 1230-1 transfected HeLa cells (receptor)
# chain: LPAQVAFTPYAPEPGSTCRLREYYDQTAQMCCSKCSPGQHAKVFCTKTSDTVCDSCEDSTYTQLWNWVPECLSCGSRCSSDQVETQACTREQNRICTCRPGWYCALSKQEGCRLCAPLRKCRPGFGVARPGTETSDVVCKPCAPGTFSNTTSSTDICRPHQICNVVAIPGNASMDAVCTSTSPTRSMAPGAVHLPQPVSTRSQHTQPTPEPSTAPSTSFLLPMGPSPPAEGSTGDFALPVEKPLCLQREAKVPHLPADKARGTQGPEQQHLLITAPSSSSSSLESSASALDRRAPTRNQPQAPGVEASGAGEARASTGSSDSSPGGHGTQVNVTCIVNVCSSSDHSSQCSSQASSTMGDTDSSPSESPKDEQVPFSKEECAFRSQLETPETLLGSTEEKPLPLGVPDAGMKPS
# B2: human TNFR2 Δ7 with glutamine 352 changed to arginine, from clone 1138-5 transfected HeLa cells (receptor)
# chain: B1 chain with Q330R
# B3: mouse TNFR2 Δ7 (SSO-induced, in serum of SSO 3274 or SSO 3305 treated mice) (receptor)
# chain: VPAQVVLTPYKPEPGYECQISQEYYDRKAQMCCAKCPPGQYVKHFCNKTSDTVCADCEASMYTQVWNQFRTCLSCSSSCTTDQVEIRACTKQQNRVCACEAGRYCALKTHSGSCRQCMRLSKCGPGFGVASSRAPNGNVLCKACAPGTFSDTTSSTDVCRPHRICSILAIPGNASTDAVCAPESPTLSAIPRTLYVSQPEPTRSQPLDQEPGPSQTPSILTSLGSTPIIEQSTKGGISLPIEKPSCLQRDAKVPHVPDEKSQDAVGLEQQHLLTTAPSSSSSSLESSASAGDRRAPPGGHPQARVMAEAQGFQEARASSRISDSSHGSHGTHVNVTCIVNVCSSSDHSSQCSSQASATVGDPDAKPSASPKDEQVPFSQEECPSQSPCETTETLQSHEKPLPLGVPDMGMKPSQAGWFDQIAVKVA
# B4: human TNFR2 Δ7 with His-tag, from clone 1319-1 transfected HeLa cells (receptor)
# chain: LPAQVAFTPYAPEPGSTCRLREYYDQTAQMCCSKCSPGQHAKVFCTKTSDTVCDSCEDSTYTQLWNWVPECLSCGSRCSSDQVETQACTREQNRICTCRPGWYCALSKQEGCRLCAPLRKCRPGFGVARPGTETSDVVCKPCAPGTFSNTTSSTDICRPHQICNVVAIPGNASMDAVCTSTSPTRSMAPGAVHLPQPVSTRSQHTQPTPEPSTAPSTSFLLPMGPSPPAEGSTGDFALPVEKPLCLQREAKVPHLPADKARGTQGPEQQHLLITAPSSSSSSLESSASALDRRAPTRNQPQAPGVEASGAGEARASTGSSDSSPGGHGTQVNVTCIVNVCSSSDHSSQCSSQASSTMGDTDSSPSESPKDEQVPFSKEECAFRSQLETPETLLGSTEEKPLPLGVPDAGMKPSKGQDNSADIQHSGGRSSLEGPRFEGKPIPNPLLGLDSTRTGHHHHHH
# modifications: variably glycosylated
# Molecular target: TNF-α
# Experiment: cell-based or functional assay
binder,measurement,value
B1,"EC50, L929 cytotoxicity assay; extracellular media from 1230-1 transfected HeLa cells",1.4 ng/mL
B2,"EC50, L929 cytotoxicity assay; extracellular media from 1138-5 transfected HeLa cells",1.8 ng/mL
B3,"EC50, L929 cytotoxicity assay; SSO 3274 treated mice serum",0.8 ng/mL
same,"EC50, L929 cytotoxicity assay; SSO 3305 treated mice serum",0.6 ng/mL
B4,"EC50, L929 cytotoxicity assay; extracellular media from 1319-1 transfected HeLa cells",1.7 ng/mL
